The text below walks through data of patent US20250320286A1 (Janssen / Centocor, published 2025).

In test [1] the target is T1, 3pE Aβ peptide (antigen, form not stated).
T1 construct: also called the peptide
Kind of test: SPR; antigen peptide not named. For orientation: In SPR one partner is held on a chip, and binding of the other changes the refractive index at the surface.

The target of test [2] is fibronectin. Kind of test: SPR; KD for this target divided by KD for human Aβ 3pE-28. As for the experimental part:
(§1) In some instances, binding affinities and specificity of anti-Aβ 3pE mAbs were measured by SPR performed using different instruments (Biacore T200, Biacore 8K or MASS-2 (Biacore, Inc.)) and anti-human or anti-mouse immunoglobulin biosensor surfaces. Anti-human or anti-mouse immunoglobulin antibodies were covalently coupled to the surface of CM4 or CM5 sensor chips (GE Healthcare) using manufacturer instructions for amine-coupling chemistry. Antibodies of interest were captured on the anti-human or mouse immunoglobulin sensor chip to a level of 300-400 RU, followed by injection of Aβ peptides or proteins (examples: human Aβ 3pE-40(SEQ ID NO:40), Aβ 3pE-28 (SEQ ID NO:42), scrambled Aβ 3pE-28 (SEQ ID NO:44), Aβ 1-28 (SEQ ID NO:43), mouse Aβ 3pE-28 (SEQ ID NO:46), or Fibronectin) at various concentrations in HEPES Buffered Saline containing 0.005% surfactant P20 (Tween™ 20). The surface was regenerated with 2 pulses injections of 30 μL of 10 mM Gly pH1.5 at 100 μL/min. Data reported is the difference in SPR signal between the flow cell containing the captured antibody and a reference cell without captured antibody. Additional instrumental contributions to the signal were removed by subtraction of the data from the blank injection from the reference-subtracted signal. When applicable data were analyzed by fitting association and dissociation phases at all concentrations (global fit) with a 1:1 binding model using the Biaevaluation software (Biacore, Inc.). Otherwise the data was evaluated qualitatively for YES/NO binding.

The target in test [3] is fibronectin. Kind of test: SPR; no binding up to 1.2 µM. How it is done:
as §1

The target in test [4] is T1, 3pE Aβ peptide (antigen, form not …). Kind of test: SPR; antigen peptide not named; range over the HFA variants.
The target in test [5] is 4U-3pE-beta-Amyloid. In words: SPR; 4U-3pE-beta-Amyloid 0.6 to 4.5 nM.
The target in test [6] is human Aβ1-42 peptide (human). In words: sandwich ELISA, BAMB31_1 coated, JRF/cAβ42/26-HRPO detection. How it is done:
For the selected Aβ3pE monoclonal antibody BAMB31, the cross-reactivity with rodent Aβ3pE-40 (SEQ ID NO:45) and human Aβ1-40 (SEQ ID NO:41), Aβ1-42 (SEQ ID NO: 48), Aβ11pE-40(SEQ ID NO:49) and Aβ11pE-42 (SEQ ID NO:50) was evaluated using synthetic peptides. The combination BAMB31 +JRF/cAβ40/28-HRPO was used to investigate the cross-reactivity with Aβ1-40 (SEQ ID NO:41), Aβ11pE-40 (SEQID NO: 49) and rodent Aβ3pE-40 (SEQ ID NO:45), and the combination BAMB31+JRF/cAβ42/26-HRPO was used to investigate the cross-reactivity with Aβ1-42 (SEQ ID NO:48) and Aβ11pE-42 (SEQ ID NO:50). Concentrations up to 10,000 pg/mL were tested.
Materials and Methods: Standards were dissolved in dimethylsulphoxide (DMSO) (Sigma) at 0.1 mg/mL and stored at −80° C. For use in ELISA, peptides were further diluted in 0.1% casein in PBS down to 1 pg/mL. Ninety-six-well-plates (Maxisorb ELISA plates; NUNC) were coated overnight at 4° C. with monoclonal antibodies from BAMB31_1 at a concentration of 1.5 μg/mL in coating buffer. The next day, plates were washed and blocked with 0.1% casein in PBS for 1-4 hours at room temperature. Standards were incubated overnight at 4° C. together with HRPO-labeled secondary antibody (JRF/cAβ40/28-HRPO or JRF/cAβ42/26-HRPO). […]

Numbering of substitutions follows the chain as printed. In names and notes the source's numbering stands.

Chain of human Aβ1-42 peptide (human) (peptide, as listed by the source): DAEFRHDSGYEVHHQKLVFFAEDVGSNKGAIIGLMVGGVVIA

B1: BAMB246 (human IgG1 chimera) (antibody)
heavy: not shown
light: DVVMTQTPLTLSVTIGQPASISCKSSQSLLDSNGKTYLTWLLQRPGQSPKRLIYLVSKLDSGVPDRFTGSGAGTDFTLKIIRVEAEDLGVYYCWQGTHFPYTFGGGTKLEIKRTVAAPSVFIFPPSDEQLKSGTASVVCLLNNFYPREAKVQWKVDNALQSGNSQESVTEQDSKDSTYSLSSTLTLSKADYEKHKVYACEVTHQGLSSPVTKSFNRGEC
notes: Mouse variable regions on a human IgG1 constant region; also called BAMB246 (human chimeric parent)
Broadly, the Kd is the concentration at which binding is half-saturated. Higher therefore signals weaker binding. With B1, the equilibrium dissociation constant (Kd) was 0.0139 nM in test [1] and more than 1200 nM in test [3]. In test [2], the “Fold Selectivity” value was more than 95000 fold.

B2: BAMB631 (antibody, human IgG1, kappa, V domains shown)
VH: QVQLVQSGAEVKKPGASVKVSCKASGHVFTSYDMYWVRQAPGQSLEWMGYIDSDNGDTSYNQKFKGRVTLTVDTSTSTVYMELSSLRSEDTAVYYCAYYRYAMDYWGQGTLVTVSS
VL: DVVMTQSPLSLPVTLGQPASISCKSSQSLLDSRAKTYLTWLLQRPGQSPRRLIYLVSKLDSGVPDRFSGSGSGTDFTLKISRVEAEDVGVYYCWQGTHFPYTFGGGTKLEIKR
notes: BAMB31 HFA variant, human IgG1
In test [1], B2 came in with a Kd of 0.018 nM.

B3: BAMB612 (antibody, human IgG1, kappa, V domains shown)
VH: B2 VH with A40S, S44G, M48I
VL: B2 VL with L42Q
notes: as for B2
On to B3, for which the dissociation constant (Kd) in test [4] and in test [1] was 0.0117 nM in each case.

B4: BAMB611 (antibody, human IgG1, kappa, V domains shown)
VH: B2 VH with S44G, L70M
VL: B2 VL with R33N, A34G, L41F, L42Q
notes: as for B2
Consider B4, for which the dissociation constant (Kd) in test [4] and in test [1] was 1.52 nM throughout.

B5: BAMB614 (antibody, human IgG1, kappa, V domains shown)
VH: B2 VH with S44G, M48I
VL: B2 VL with L42Q
notes: as for B2
B5 registered a Kd in test [1] of 0.016 nM.

B6: BAMB630 (antibody, human IgG1, kappa, V domains shown)
VH: B2 VH with R38K, M48I, R67K
VL: B2 VL
notes: as for B2
In test [1], B6 yielded a Kd of 0.0383 nM.

B7: BAMB623 (antibody, human IgG1, kappa, V domains shown)
VH: B2 VH with M48I, R67K, V68A, L70M
VL: B2 VL with L42Q
notes: as for B2
Molecule B7 registered an equilibrium dissociation constant (Kd) in test [1] of 0.0183 nM.

B8: BAMB613 (antibody, human IgG1, kappa, V domains shown)
VH: B2 VH with S44G, M48I, R67K
VL: B2 VL with L42Q
notes: as for B2
Regarding B8, binding in test [1] was characterised by a dissociation constant (Kd) of 0.0182 nM.

B9: BAMB674 (antibody, human IgG1, kappa)
heavy: not shown
light: DVVMTQSPLSLPVTLGQPASISCKSSQSLLDSRAKTYLTWLQQRPGQSPRRLIYLVSKLDSGVPDRFSGSGSGTDFTLKISRVEAEDVGVYYCWQGTHFPYTFGGGTKLEIKRTVAAPSVFIFPPSDEQLKSGTASVVCLLNNFYPREAKVQWKVDNALQSGNSQESVTEQDSKDSTYSLSSTLTLSKADYEKHKVYACEVTHQGLSSPVTKSFNRGEC
notes: Lead HFA variant, wild type human IgG1; HCDR2 N55S; also called BAMAB674; BAMB31 HFA mAb, wild type IgG1
Usually koff stands for the rate constant with which the complex falls apart. Read a high koff as fast dissociation. By kon is commonly meant the rate constant with which the complex forms. A high value points to fast association. Turning to B9, the “Fold Selectivity” value in test [2] was more than 47000 fold. In test [5], this molecule yielded a Kd of 0.0401 nM, a koff of 0.000136 s⁻¹ and a kon of 3.39e+06 M⁻¹ s⁻¹. This molecule also gave a Kd in test [3] of more than 1200 nM.

B10: BAMB701 (antibody, human IgG1, kappa)
heavy: QVQLVQSGAEVKKPGASVKVSCKASGHVFTSYDMYWVRQAPGQGLEWIGYIDSDSGDTSYNQKFKGRVTLTVDTSTSTVYMELSSLRSEDTAVYYCAYYRYAMDYWGQGTLVTVSSASTKGPSVFPLAPSSKSTSGGTAALGCLVKDYFPEPVTVSWNSGALTSGVHTFPAVLQSSGLYSLSSVVTVPSSSLGTQTYICNVNHKPSNTKVDKKVEPKSCDKTHTCPPCPAPELLGGPSVFLFPPKPKDTLYITREPEVTCVVVDVSHEDPEVKFNWYVDGVEVHNAKTKPREEQYNSTYRVVSVLTVLHQDWLNGKEYKCKVSNKALPAPIEKTISKAKGQPREPQVYTLPPSREEMTKNQVSLTCLVKGFYPSDIAVEWESNGQPENNYKTTPPVLDSDGSFFLYSKLTVDKSRWQQGNVFSCSVMHEALHNHYTQKSLSLSPGK
light: B9 light with L109V
For the molecule B10, in test [5], the dissociation constant Kd stood at 0.0314 nM, the koff was 9.47e-05 s⁻¹ and the kon was determined as 3.01e+06 M⁻¹ s⁻¹.

B11: BAMB700 (antibody, human IgG1, kappa)
heavy: not shown
light: B9 light with G105Q
For B11, in test [5], binding was characterised by a dissociation constant (Kd) of 0.0342 nM, the koff stood at 9.86e-05 s⁻¹ and the on-rate (kon) is 2.88e+06 M⁻¹ s⁻¹.

B12: BAMB675 (antibody, human IgG1, kappa)
heavy: B10 heavy
light: B9 light
notes: Same V regions as BAMB674 on IgG1 with M37Y, S39T, T41E in the Fc (numbering on GenBank AEV43323); also called BAMB31 HFA mAb, +YTE IgG1
With B12, the “Fold Selectivity” value in test [2] was more than 46000 fold. Moreover, in test [5], the Kd worked out at 0.0443 nM, the koff came out at 0.000166 s⁻¹ and the kon came out at 3.74e+06 M⁻¹ s⁻¹. Besides, the Kd in test [3] is more than 1200 nM.

B13: BAMB31_1 (antibody, mouse IgG1, V domains shown)
VH: EIQLQQSGPELVKPGTSVKVSCKASGHVFTSYDMYWVKQSHGKSLEWIGYIDSDNGDTSYNQKFKGKATLTVDKSSSTAYMHLNSLTSEDSAVYYCAYYRYAMDYWGQGTSVTVSS
VL: not shown
notes: Hybridoma antibody
Regarding B13, the binding result in test [6] is listed as “no binding (tested: 10 ng/ml)”.
